From article PMC4323944 (Journal of molecular biology, 2014) come the findings set out here.

Series [1] deals with the molecule itself. The series is described as follows: pulsed dipolar ESR spectroscopy.
The series “SEC-MALS” deals with the molecule itself. The series is described as follows: SEC-MALS. In general terms: In gel filtration, larger molecules generally elute earlier.
The target in series [2] is T1, T. maritima FliM middle domain (FliMM, residues 46-242) (Thermotoga maritima, UniProt Q9WZE6 46-242).
T1 sequence (looked up): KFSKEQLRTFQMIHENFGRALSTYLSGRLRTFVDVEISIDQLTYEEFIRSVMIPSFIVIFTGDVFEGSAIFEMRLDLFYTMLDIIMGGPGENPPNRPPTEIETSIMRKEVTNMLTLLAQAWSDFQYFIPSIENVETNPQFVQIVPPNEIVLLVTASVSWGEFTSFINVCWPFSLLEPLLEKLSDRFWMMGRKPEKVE
The series is described as follows: crystal structure.

B1: FliG Q129W 160-R1 (FliGMC Q129W K160C, MTSSL spin-labeled) (domain or fragment, Thermotoga maritima, UniProt Q9WY63 116-335, looked up)
chain: PVQLVNFLQSEHPWTIAVVLSYLDPPVAAQILGALPEELQTEVLCRIALLERTSPEVVKEIERNLEKKISGFVSRTFSKVGGIDTAAEIMNNLDRTTEKKIMDKLVQENPELADEIRRRMFVFEDILKLDDRSIQLVLREVDTRDLALALKGASDELKEKIFKNMSKRAAALLKDELEYMGPVRLKDVEEAQQKIINIIRRLEEAGEIVIARGGGEELIM
modifications: nitroxide side chain R1 (MTSSL on Cys 160)
Take B1: in series [1], the binding result is listed as “binds”.

B2: FliG 160-R1 (FliGMC K160C, MTSSL spin-labeled) (domain or fragment, Thermotoga maritima, UniProt Q9WY63 116-335, looked up)
chain: PVQLVNFLQSEHPQTIAVVLSYLDPPVAAQILGALPEELQTEVLCRIALLERTSPEVVKEIERNLEKKISGFVSRTFSKVGGIDTAAEIMNNLDRTTEKKIMDKLVQENPELADEIRRRMFVFEDILKLDDRSIQLVLREVDTRDLALALKGASDELKEKIFKNMSKRAAALLKDELEYMGPVRLKDVEEAQQKIINIIRRLEEAGEIVIARGGGEELIM
modifications: nitroxide side chain R1 (MTSSL on Cys 160)
For B2, the “stoichiometry N” value in the series “SEC-MALS” worked out at 2.

B3: FliG 174-R1 (FliGMC K174C, MTSSL spin-labeled) (domain or fragment, Thermotoga maritima, UniProt Q9WY63 116-335, looked up)
chain: PVQLVNFLQSEHPQTIAVVLSYLDPPVAAQILGALPEELQTEVLKRIALLERTSPEVVCEIERNLEKKISGFVSRTFSKVGGIDTAAEIMNNLDRTTEKKIMDKLVQENPELADEIRRRMFVFEDILKLDDRSIQLVLREVDTRDLALALKGASDELKEKIFKNMSKRAAALLKDELEYMGPVRLKDVEEAQQKIINIIRRLEEAGEIVIARGGGEELIM
modifications: nitroxide side chain R1 (MTSSL on Cys 174)
Consider B3, for which the binding result in series [1] is reported as “binds”.

B4: T. maritima FliG middle domain (FliGM, residues 117-195) (domain or fragment, Thermotoga maritima, UniProt Q9WY63 117-195, looked up)
chain: VQLVNFLQSEHPQTIAVVLSYLDPPVAAQILGALPEELQTEVLKRIALLERTSPEVVKEIERNLEKKISGFVSRTFSKV
On to B4, for which the binding result in series [2] is listed as “binds”.

A word on the stoichiometry N: it is a count of units in the complex or per binding partner.
